Target: HA-Cdh1 (UniProt Q9UM11)
Sequence (Q9UM11 whole entry): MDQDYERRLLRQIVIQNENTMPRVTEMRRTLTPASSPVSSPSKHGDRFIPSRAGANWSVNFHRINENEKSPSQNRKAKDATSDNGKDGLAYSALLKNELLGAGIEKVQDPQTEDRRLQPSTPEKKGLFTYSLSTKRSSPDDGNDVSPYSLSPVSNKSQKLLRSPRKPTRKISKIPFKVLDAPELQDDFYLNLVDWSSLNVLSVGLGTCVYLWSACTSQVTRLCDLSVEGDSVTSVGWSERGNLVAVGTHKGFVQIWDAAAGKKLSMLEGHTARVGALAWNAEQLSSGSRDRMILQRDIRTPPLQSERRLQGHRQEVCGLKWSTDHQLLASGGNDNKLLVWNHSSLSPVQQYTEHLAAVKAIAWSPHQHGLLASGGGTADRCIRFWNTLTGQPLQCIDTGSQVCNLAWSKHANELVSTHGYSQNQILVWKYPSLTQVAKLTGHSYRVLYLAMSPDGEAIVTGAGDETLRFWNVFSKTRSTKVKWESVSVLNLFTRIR

recombinant human cyclin D1+CDK4 proteins (Abcam ab55695)
in vitro kinase assay (thiophosphate ester immunoblot): CDK4 specifically phosphorylates Cdh1 at S163
